{
  "source": "patent US20120231024A1",
  "about": "(UNIVERSIT TSKLINIKUM FREIBURG, published 2012)",
  "binders": {"B1": {"name": "scFv A5 (scFv)", "scFv": "MADVKLVESGGGLVKPGESLKLSCIASGFTFSDYYMYWVRQTPEKRLEWVAIISDGGYYTYYSDIIKGRFTISRDNAKNNLYLQMSSLKSEDTAMYYCTRGFPLLRHGAMDYWGLGTSVTVSSTKTTPKLEEGEFSEARVDIQMTQSPKFMSTSVGDRVSVTCKASQNVDTNVAWYQQKPGQSPKALIYSASYRYSDVPDRFTGSESGTDFTLTISNVQSEDLAEYFCQQYDSYPYTFGGGTKLEIKRADAAA", "notes": "also called scFv AS [sic]"}},
  "molecular_target": "T1, prostate specific membrane antigen (PSMA), native, on the cell surface (human, UniProt Q04609 1-750)",
  "T1 construct": "whole, on cells; also called cell-surface PSMA; native PSMA",
  "T1 sequence (Q04609 whole entry)": "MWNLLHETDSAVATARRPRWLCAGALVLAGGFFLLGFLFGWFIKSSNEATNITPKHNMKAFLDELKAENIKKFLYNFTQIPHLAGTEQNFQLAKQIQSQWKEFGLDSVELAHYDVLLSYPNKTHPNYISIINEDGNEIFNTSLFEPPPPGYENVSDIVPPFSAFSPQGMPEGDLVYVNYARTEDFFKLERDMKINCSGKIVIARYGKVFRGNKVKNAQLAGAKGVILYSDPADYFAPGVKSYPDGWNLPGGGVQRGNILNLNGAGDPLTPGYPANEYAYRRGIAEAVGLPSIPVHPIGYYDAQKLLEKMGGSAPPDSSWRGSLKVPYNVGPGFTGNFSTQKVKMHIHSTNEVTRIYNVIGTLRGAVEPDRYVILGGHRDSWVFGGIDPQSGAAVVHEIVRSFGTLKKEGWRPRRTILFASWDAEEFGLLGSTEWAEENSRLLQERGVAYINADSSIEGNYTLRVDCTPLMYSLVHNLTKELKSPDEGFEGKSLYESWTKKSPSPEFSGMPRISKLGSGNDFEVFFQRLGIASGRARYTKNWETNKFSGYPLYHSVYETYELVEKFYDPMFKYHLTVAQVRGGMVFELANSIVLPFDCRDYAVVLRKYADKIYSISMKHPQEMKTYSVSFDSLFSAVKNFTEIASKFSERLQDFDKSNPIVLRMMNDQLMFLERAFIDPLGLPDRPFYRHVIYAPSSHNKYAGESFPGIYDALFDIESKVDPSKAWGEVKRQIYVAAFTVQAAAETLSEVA",
  "assay": "flow cytometry saturation curve on LNCaP cells; concentration at 50% saturation of PSMA sites",
  "procedure": "The binding properties of the isolated monoclonal antibodies or an antigen binding portion thereof to the native PSMA were compared by treating LNCAP cells with increasing concentrations of the first step anti-PSMA Ab followed by incubation with the second step PE-labeled antibody. From the resulting saturation curves the antibody concentration reaching 50% saturation of PSMA sites can be read.",
  "data": [
    {"binder": "B1", "values": [
      {"measurement": "EC50", "result": 60, "unit": "nM"}
    ]}
  ]
}
